In this experiment the target is MBP-Hsmar1 transposase (human). Put plainly: SEC; Superdex 200 10/300 GL, GF buffer (25 mM HEPES pH 7.5, 200 mM NaCl, 2 mM DTT, 5 mM EDTA, 0.1% Triton X-100 reduced); ^MBPHsmar1 after increasing Factor Xa proteolysis (1 ug protease per 50 ug fusion protein).

A word on the stoichiometry N: it is a count of units in the complex or per binding partner. For MBP-Hsmar1 transposase (enzyme), the stoichiometry N stood at 2.
